Measurements published in PMC5703852, “Functional interplay between the transcription factors USF1 and PDX-1 and protein kinase CK2 in pancreatic β-cells” (Scientific Reports, 2017).

Biological target: T1, GST-USF1 T100D (UniProt P22415 1-310, T100D)
T1 construct: USF1 with the CK2 phosphorylation site threonine 100 changed to the phospho-mimicking aspartic acid, as GST fusion; also called phospho-mimicking USF1_(T100D) mutant; source: bacterial expression, purified GST fusion protein
Assay: pull-down; 10 µg purified GST fusion protein on GSH-sepharose in PBS-T (PBS pH 7.4, 1% Tween 20), 2 h at 4 °C with 7.5 µl in vitro translated [35S]methionine-labelled partner; SDS-PAGE, Coomassie, autoradiography
Details: one partner purified

T1 sequence (P22415 whole entry T100D, the tested form may be a part): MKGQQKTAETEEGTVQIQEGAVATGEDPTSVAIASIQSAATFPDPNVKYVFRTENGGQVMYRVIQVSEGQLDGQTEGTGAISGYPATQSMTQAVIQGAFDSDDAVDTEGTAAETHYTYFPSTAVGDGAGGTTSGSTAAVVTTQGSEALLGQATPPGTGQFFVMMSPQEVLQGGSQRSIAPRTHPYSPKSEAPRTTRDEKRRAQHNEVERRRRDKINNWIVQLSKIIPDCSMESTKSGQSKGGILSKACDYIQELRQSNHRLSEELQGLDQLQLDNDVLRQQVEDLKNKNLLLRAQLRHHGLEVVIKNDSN

- fold binding against wild-type or alanine mutant USF1: 3.5 fold
B1: in vitro translated PDX-1 (pRSET-PDX-1) (natural protein)
chain: not shown
modifications: [35S]methionine labelled
notes: mouse PDX-1 cDNA cloned in frame into the BamH1/HindIII sites of pRSETA; also called wild-type PDX-1; source: in vitro translated (from pRSET-PDX-1, Promega)
